Results taken from patent US20240139115A1, “Novel Method for Preparation of Nanoparticles Comprising Cell Penetrating Peptides” (CELLPEPT SWEDEN AB, priority 2021, published 2024).
Where no end group is shown, it is not given here. [ ]: non-standard residue; d: D form. The star is where a group is joined. Stearoyl = CCCCCCCCCCCCCCCCCC(=O)*; R8 = C=CCCCCCC[C@@](C)(N)C(=O)O; Orn = NCCC[C@H](N)C(=O)O

How the values were obtained:
[1] = test system: human primary keratinocytes; experiment: Transfection with EGFP-coding mRNA/CPP complexes; assay type: cell-based; details: CPP solutions in mixture of organic solvents; 200 ng mRNA, 520 nM CPP, 20 h; FIG. 3
Procedure: The complexes of 200 ng of mRNA with 520 nM CPP were added into culture medium above cells per well of 24-well plate for 20 h. For the delivery and expression of EGFP, mRNA complexes were assembled with NF71 (dissolved at 1 mM concentration in ethanol/DMSO/trimethylene carbonate 78/20/2) or PF14 (PF14o—dissolved at 1 mM concentration in ethanol/DMSO, or in water—PF14w).
The CPP nanoparticles with mRNA are formed in a similar manner with pDNA. mRNA at concentration 10 μg/ml is complexed with 10 μM PF14 CPP in Milli-Qwater. If required, Ca or Mg ions are incorporated in CPP-mRNA nanoparticles as described above. Unlike other particle solutions described above, CPP-mRNA 10× solutions are directly added into growth medium where cells have been incubated. The preferred N/P ratio (“charge ratio”) of CPP to mRNA is 2. Depending on the charge of used CPP, type of cells and experiment, N/P ratio can be varied in the range 1.5 to 4. For delivery of mRNA into human primary cells, preferentially Mg ions are incorporated in CPP nanoparticles.

[2] = Dynamic light scattering (DLS) size and polydispersity of CPP particles after dilution in water; assay type: physicochemical; details: PF14 in isopropanol/DMSO/trimethylene carbonate (90/9/1), further 10-fold dilution
Procedure: (§1) The diameter and zeta potential of CPP nanoparticles may be measured using dynamic light scattering (DLS) or nanoparticle tracking analysis system (NTA) (1), (4) (using 0.01 mM peptide). The morphology of NP is analysed by transmission electron microscopy (TEM) (11), scanning electron microscopy (SEM) or atomic force microscopy (AFM) using 0.1 or 0.01 mM peptide solution.
The physical characteristics (diameter and zeta-potential) of the peptide micelles/aggregates/nanoparticles were analysed by dynamic light scattering (DLS) using a ZetaView (Particle Metrix, Germany) or ZetasizerNano ZS apparatus (Malvern Instruments, UK) at 10 μM concentration in water.
DLS analysis of the size of CPP particles forming after 100-fold dilution of 1 mM peptide solution in Milli-Q water or organic solvents (ambient temperature) is provided in Table 1.
The optimal size of nanoparticles to be used for drug delivery in vivo is in range of 100 nm (between 10 and 200 nm), and the lack of large aggregates is highly essential. In order to analyse the size of CPP clusters that form in water, DLS traces were measured by Malvern Zetasizer Nano ZS. Four consecutive measurements were performed with each sample for the calculation of the size and polydispersity of the forming CPP particles.

[3] = Transmission electron microscopy (TEM) of size and shape of CPP particles; assay type: physicochemical
Procedure: as §1
Analysis of the size and shape of CPP nanoparticles and their complexes with cargo nucleic acids by transmission electron microscopy (TEM) confirmed data from DLS analysis. Depending on the solvent used for preparation of 1 mM peptide solutions, the particles of CPP were largely different.

HeLa pLuc705 cells = experiment: Splicing correction luciferase assay (Kole's assay); details: hPep3 dissolved in the mixture of dimethyl sulfoxide; 100 nM SCO-705, 500 nM peptide, 24 h; FIG. 5

Substance	transfection of EGFP mRNA and expression of EGFP [1]	average diameter of uniform NP [2]	aggregates present in specimen ([3]; PF14 in isopropanol/DMSO/trimethylene carbonate (90/9/1) at 1 mM, diluted in water to 0.1 mM, TEM)	diameter of spherical nanoparticles ([3]; PF14 in isopropanol/DMSO/trimethylene carbonate (90/9/1) at 1 mM, quick dilution in water to 0.1 mM, TEM)	larger PF14 particles observed in TEM images ([3]; PF14 in isopropanol/DMSO/trimethylene carbonate (90/9/1), 0.1 mM in water)	efficiency of nanoparticles with SCO cargo compared with water-dissolved hPep3 (HeLa pLuc705 cells)
NickFect 71 (Stearoyl-HHYHHGXILLKALKALAKAIL-NH2; not fully specified (residue 7); printed as HHYHHGObILLKALKALAKAIL; also: Gly6 joined to the Orn7 side-chain delta-amino instead of its alpha-amino) [NF71]	enable transfection	–	–	–	–	–
PepFect 14 (Stearoyl-AGYLLGKLL[Orn][Orn]LAAAAL[Orn][Orn]LL-NH2) [PF14, Stearyl (C18)-…OOLAAAALOOLL, C-terminal amide]	enable transfection	~100 nm	No aggregates	40-60 nm	100-150 nm	–
hPep3 (L[R8][dK]LAKA[R8]AKLLKA[R8]AKAL; staple (positions not given here); also: three R8 olefin residues, staple pairing not given here)	–	–	–	–	–	same efficiency
